In article PMC2114792 (The Journal of Cell Biology, 1987):

Target: the molecule itself
Assay: rotary shadowing electron microscopy

B1: chicken hexabrachion protein (myotendinous (M1) antigen) (natural protein, UniProt P10039 34-1808, looked up)
chain: ETGLNVTLPEDNQPVVFNHVYNIKLPVGSLCSVDLDTASGDADLKAEIEPVKNYEEHTVNEGNQIVFTHRINIPRRACGCAAAPDIKDLLSRLEELEGLVSSLREQCASGAGCCPNSQTAEGRLDTAPYCSGHGNYSTEICGCVCEPGWKGPNCSEPACPRNCLNRGLCVRGKCICEEGFTGEDCSQAACPSDCNDQGKCVDGVCVCFEGYTGPDCGEELCPHGCGIHGRCVGGRCVCHEGFTGEDCNEPLCPNNCHNRGRCVDNECVCDEGYTGEDCGELICPNDCFDRGRCINGTCFCEEGYTGEDCGELTCPNNCNGNGRCENGLCVCHEGFVGDDCSQKRCPKDCNNRGHCVDGRCVCHEGYLGEDCGELRCPNDCHNRGRCINGQCVCDEGFIGEDCGELRCPNDCHNRGRCVNGQCECHEGFIGEDCGELRCPNDCNSHGRCVNGQCVCDEGYTGEDCGELRCPNDCHNRGRCVEGRCVCDNGFMGEDCGELSCPNDCHQHGRCVDGRCVCHEGFTGEDCRERSCPNDCNNVGRCVEGRCVCEEGYMGIDCSDVSPPTELTVTNVTDKTVNLEWKHENLVNEYLVTYVPTSSGGLDLQFTVPGNQTSATIHELEPGVEYFIRVFAILKNKKSIPVSARVATYLPAPEGLKFKSVRETSVQVEWDPLSISFDGWELVFRNMQKKDDNGDITSSLKRPETSYMQPGLAPGQQYNVSLHIVKNNTRGPGLSRVITTKLDAPSQIEAKDVTDTTALITWSKPLAEIEGIELTYGPKDVPGDRTTIDLSEDENQYSIGNLRPHTEYEVTLISRRGDMESDPAKEVFVTDLDAPRNLKRVSQTDNSITLEWKNSHANIDNYRIKFAPISGGDHTELTVPKGNQATTRATLTGLRPGTEYGIGVTAVRQDRESAPATINAGTDLDNPKDLEVSDPTETTLSLRWRRPVAKFDRYRLTYVSPSGKKNEMEIPVDSTSFILRGLDAGTEYTISLVAEKGRHKSKPTTIKGSTEEEPELGNLSVSETGWDGFQLTWTAADGAYENFVIQVQQSDNPEETWNITVPGGQHSVNVTGLKANTPYNVTLYGVIRGYRTKPLYVETTTGAHPEVGELTVSDITPESFNLSWTTTNGDFDAFTIEIIDSNRLLEPMEFNISGNSRTAHISGLSPSTDFIVYLYGISHGFRTQAISAAATTEAEPEVDNLLVSDATPDGFRLSWTADDGVFDSFVLKIRDTKRKSDPLELIVPGHERTHDITGLKEGTEYEIELYGVSSGRRSQPINSVATTVVGSPKGISFSDITENSATVSWTPPRSRVDSYRVSYVPITGGTPNVVTVDGSKTRTKLVKLVPGVDYNVNIISVKGFEESEPISGILKTALDSPSGLVVMNITDSEALATWQPAIAAVDNYIVSYSSEDEPEVTQMVSGNTVEYDLNGLRPATEYTLRVHAVKDAQKSETLSTQFTTGLDAPKDLSATEVQSETAVITWRPPRAPVTDYLLTYESIDGRVKEVILDPETTSYTLTELSPSTQYTVKLQALSRSMRSKMIQTVFTTTGLLYPYPKDCSQALLNGEVTSGLYTIYLNGDRTQPLQVFCDMAEDGGGWIVFLRRQNGKEDFYRNWKNYVAGFGDPKDEFWIGLENLHKISSQGQYELRVDLRDRGETAYAVYDKFSVGDAKTRYRLRVDGYSGTAGDSMTYHNGRSFSTFDKDNDSAITNCALSYKGAFWYKNCHRVNLMGRYGDNNHSQGVNWFHWKGHEYSIQFAEMKLRPSSFRNLEGRRKRA
stoichiometry N: 6
